Target: microtubules (pig brain tubulin) (pig, UniProt P02550 1-451; Q767L7 1-444, Cy3 or Cy5 and biotin labels on a fraction of the tubulin | Cy3 or Cy5 and biotin labels on a fraction of the tubulin)
Sequence (P02550 other isoform, or with tags, fused parts or gaps, chain 1 of 2): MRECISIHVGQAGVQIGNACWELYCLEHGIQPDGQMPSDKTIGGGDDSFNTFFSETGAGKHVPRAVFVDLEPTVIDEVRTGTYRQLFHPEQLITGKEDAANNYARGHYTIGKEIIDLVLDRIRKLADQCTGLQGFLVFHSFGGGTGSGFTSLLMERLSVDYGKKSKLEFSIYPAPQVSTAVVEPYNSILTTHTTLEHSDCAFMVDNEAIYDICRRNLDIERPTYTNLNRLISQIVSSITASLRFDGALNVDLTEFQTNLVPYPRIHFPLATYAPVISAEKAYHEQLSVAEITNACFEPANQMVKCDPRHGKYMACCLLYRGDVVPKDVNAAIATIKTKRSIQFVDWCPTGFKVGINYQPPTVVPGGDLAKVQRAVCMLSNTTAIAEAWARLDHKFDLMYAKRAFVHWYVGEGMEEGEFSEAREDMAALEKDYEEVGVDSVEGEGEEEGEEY
Sequence (Q767L7 other isoform, or with tags, fused parts or gaps, chain 2 of 2): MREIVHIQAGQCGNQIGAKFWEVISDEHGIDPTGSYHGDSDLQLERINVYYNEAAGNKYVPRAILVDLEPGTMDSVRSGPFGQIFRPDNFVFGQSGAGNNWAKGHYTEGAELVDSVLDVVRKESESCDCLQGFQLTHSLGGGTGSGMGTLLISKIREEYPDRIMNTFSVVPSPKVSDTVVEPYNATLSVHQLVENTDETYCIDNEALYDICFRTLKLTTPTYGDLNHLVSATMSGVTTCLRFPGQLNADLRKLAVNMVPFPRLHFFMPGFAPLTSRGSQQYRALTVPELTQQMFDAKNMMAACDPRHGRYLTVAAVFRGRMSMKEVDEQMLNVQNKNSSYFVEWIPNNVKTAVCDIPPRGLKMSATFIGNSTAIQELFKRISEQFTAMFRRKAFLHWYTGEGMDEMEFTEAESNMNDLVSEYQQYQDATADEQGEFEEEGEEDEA

- Kd: 279 nM
B1: NuMA Bonsai (other)
chain: MTLHATRGAALLSWVNSLHVADPVEAVLQLQDCSIFIKIIDRIHGTEEGQQILKQPVSERLDFVCSFLQKNRKHPSSPECLVSAQKVLEGSELELAKMTMLLLYHSTMSSKSPRDWEQFEYKIQAELAVILKFVLDHEDGLNLNEDLENFLQKAPVPSTCSSTFPEELSPPSHQAKREIRFLELQKVASSSSGNNFLSGSPASPMGDILQTPQFQMRRLKKQLADERSNRDELELELAENRKLLTEKDAQIAMMQQRIDRLALLNEKQAASPLEPKELEELRDKNESLTMRLHETLKQCQDLKTEKSQMDRKINQLSEENGDLSFKLREFASHLQQLQDALNELTEEHSKATQEWLEKQAQLEKELSAALQDKKCLEEKNEILQGKLSQLEEHLSQLQDNPPQEKGEVLGDVLQLETLKQEAATLAANNTQLQARVEMLETERGQQEAKLLAERGHFEEEKQQLSSLITDLQSSISNLSQAKEELEQASQAHGARLTAQVASLTSELTTLNATIQQQDQELAGLKQQAKEKQAQLAQTLQQQEQASQGLRHQVEQLSSSLKQKEQQLKEVAEKQEATRQDHAQQLATAAEEREASLRERDAALKQLEALEKEKAAKLEILQQQLQVANEARDSAQTSVTQAQREKAELSRKVEELQACVETARQEQHEAQAQVAELELQLRSEQQKATEKERVAQEKDQLQEQLQFQVATDALKSREPQAKPQLDLSIDSLDLSCEEGTPLSITSKLPRTQPDGTSVPGEPASPISQRLPPKVESLESLYFTPIPARSQAPLESSLDSLGDVFLDSGRKTRSARRRTTQIINITMTKKLDVEEPDSANSSFYSTRSAPASQASLRATSSTQSLARLGSPDYGNSALLSLPGYRPTTRSSARRSQAGVSSGAPPGRNSFYMGTCQDEPEQLDDWNRIAELQQRNRVCPPHLKTCYPLESRPSLSLGTITDEEMKTGDPQETLRRASMQPIQIAEGTGITTRQQRKRVSLEPHQGPGTPESKKATSCFPRPMTPRDRHEGRKQSTTEAQKKAAPASTKQADRRQSMAFSILNTPKKLGNSLLRRGASKKALSKASPNTRSGTRRSPRIATTTASAATAAAIGATPRAKGKAKH

Source: doi:10.1101/2024.11.26.625568 (2024)
